Target: CD20 polypeptide (safety switch) expressed on transduced T cells (human) (UniProt P11836)
Experiment: cell-based or functional assay

Chain of UniProt P11836 (P11836 whole entry): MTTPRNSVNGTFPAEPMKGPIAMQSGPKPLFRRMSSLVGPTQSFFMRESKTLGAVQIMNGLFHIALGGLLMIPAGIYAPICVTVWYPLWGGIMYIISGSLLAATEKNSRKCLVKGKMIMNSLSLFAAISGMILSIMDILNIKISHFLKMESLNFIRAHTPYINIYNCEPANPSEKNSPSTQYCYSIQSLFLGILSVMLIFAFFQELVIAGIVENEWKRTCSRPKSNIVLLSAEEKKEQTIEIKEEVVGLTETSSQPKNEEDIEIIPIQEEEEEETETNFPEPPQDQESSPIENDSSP

Rituximab (Rituxan®, Biogen) (antibody)
4-hour chromium release assay on IL13Rα2-CAR^CD20 T cells: 70% | decrease in CD20+ cell number by flow cytometry after 1 hour (rituximab + complement vs rituximab alone): > 30% | killing of CD123-CAR T cells by rituximab and complement: 80%
